# The supplement of paper PMC9170038
# System: K4 kissing-loop RNA reporter
# Test: apparent KD of K4 kissing-loop reporter; higher = weaker reporter binding
# Settings: Eterna round: R107; input ligand: arginine 13.2 mM
# Description: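 RNA-MaP round R107: designed RNA switches with theophylline, tryptophan, arginine or FMN aptamers are transcribed on-chip within common flanks. They are titrated with a labelled K4 kissing-loop RNA reporter in RNA-MaP buffer (100 mM Tris pH 7.5, 80 mM KCl, 4 mM MgCl2), without ligand or with the indicated ligand. Median apparent KD per design.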
# 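Note: bound reporter read as fluorescence of individual clusters on recovered sequencing chips by microscopy, with normalized cluster intensities fitted with a binding model.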
row,Sequence,apparent KD of K4 kissing-loop reporter [nM]
1,AGAGAUAUAUGAGGAUAUGAGUUAGUUAAUGAGUGAGUUUUAGUGUUGUUUGGUUAGUGAUGUUAUUUAGAAGGCGUGAGUGAUG [ttytmullin],75.2
2,GCAGGACGAGGAGGAGGAUGAAUUACUGAAGGAGCGCAUAUGGUUGCAGGUAGGUCGCGGUAAACAAGUAUAGUGAUGUUAUAUC [SSArgA.P],586
3,GUAGACAGGCUGCGAACCUAGUCUACAGACUAGGAUAUCAGGAAACUGAGAAGGAGUCUAGUUGCAGUGAUGUUGCAAGAAUAAU [KL-SSFMN-A25],125
4,CCAUCGCUAUUCGAUACCAGCUACUUAGUGAUGUUAAGUUUAAAUCCACUGUAGGUGGAAAGCCCUUGGCAGCGAAUAGUGAUGG [Theophylline B K4 24],274
5,GCGCGUCAUGUCGGCGGUGACUACGCCGAUACCAGCCGGGAAACCGGCCCUUGGCAGCGGCGCGCCGGAGUGAUGUUCCGACAGA [#2 Exclusion - Theophylline A Attempt #3 (HarryS)],205
6,CAUGGACUUCCAGUGUAUCCAUGACUGGAUACCAGUCAGGAAACUGACCCUUGGCAGCCAGAACUGGAAGUGAUGUUUCCAGUAA [Design8],214
7,AAAUUUUCGAGUGAUGUUCGAAUAAUUUCAGAGGAUAUGCUUAAAAGCAGAAGGCUGUAUUACUAUUUGUUAUUAAAUUUUAUAA [JR_ExcFMNA_Sub001],110
8,CUCACAGUGAUGUUGUGGGCCGAGAGUGAUACCAGCCGUAUUUGUGGCCCUUGGCAGCGCAAAAGCCGAGUGAUGUUCGAAUCGG [Same State Theophylline A GF 24],196
9,UGUAUAGUCAGAAGGAGCGUGAACGAUCGAGAAUCGAUCAGCCAGUGAUGUUGGCAGGAAUCACAGGUAGGUCGCUGACUGUACA [Arg B SS t3],208
10,GGUAGCAUGGCGGCCGCCACUUUGCACCUUUUCUUUUCUUUUGGUGCUUCACGAGUGAUGUUCGUAAGGACCGGGCCAUGCUACC,217
11,GCCGUAGAUGGAAGGAGCGUGUCCAAACCUCAUUCAUGUACACACGAGUGAUGUUCGUGUACACAGGUAGGUCGCCAUCUACGGC,314
12,UGAUUUAACUGAAGGAGCGGCAAUAGAGAAGGAAAUAUAGUGAUGUUAUAUAAGAGAGAGAGCCAGGUAGGUCGCAGAGGGAGGA [ExArgB.F],128
13,AGUAAUGAGUGAUGUUCAAAUAGUAAGGAUACCAGUAAUUCAAAAUGCCCUUGGCAGCUUAACGCUACCAAUAGAUAAAUAAUGG [Theophilline A V2 (+2A)],166
14,ACCUGUAGUGAUGUUACUGGUGGUUAGGAAGGAGCGCCCGCGUGGGCAGGUAGGUCGCCUAAGCUAUGUGGGAAACCGCAUAUUG [#14 K4 Arginine A Same State],73.8
15,ACGUAGUUCUAGGAUACCAGCCAAGGCCCAGGACAAAAGUCCUGGGUCGCCAGUGAUGUUGGCCCUUGGCAGCCUAGAACUACGA [Omei KL Theo B Exc B v11],358
16,AAAUUUAAUAUAUUUAAUUAAUUAUGUGAUACCAGACAUUUAUAAGUCCCUUGGCAGCACUUUGCAGUGAUGUUGCUUAUAAUAA [JR_SSTheophyA_Sub014],97.1
17,UGGCCUUAAAUUCUAGGAUUAGCGACGUACAAGGAUAUUCGUCAUCGAAGAAGGUGUAGCUAGGAGAGUGAUGUUUUCCAUCGCC [theeternabot_sameState_KL_FMN_A_15],449

row,Sequence,apparent KD of K4 kissing-loop reporter [nM]
1,AAUAAGGAGUGAUGUUCCAAGUGAUGUUAACGAGGACCGGUACGGCCGCCACUCGAUACGGCCGGAAAAUAAAAUAAAAUAAAAU [Same State - Tryptophan A (Freestyle 1)],119
2,AGGAGUGAUGUUCCUACAUAGACGGUCCGACGAGGACCGGUACGGCCGCCACUCGCGUCCCAGUGAUGUUGGGAUUCAACGUACA [Exclusion Tryptophan A Gf 15],150
3,AGCUCAGAGUGACUCGAUAAGAGUCACAAACGAGGACCGGUACGGCCGCCACUCGAAAUAACGAGAGUGAUGUUCUCACUGAGCA [FiskerMod 11 - Jieux - Same State Tryptophan A],635
4,UGUACCGAUUCAGGAUAUGUCGUCGAAAGACGAAAUGGAGUGAUGUUCCUUAAACUGCGAAAGCAGACAGAAGGGAAUUGGUACU [FmnBS 29 U9+A77],285
5,UAACUUGCAGUGAUGUUGCAAGAACUGGAUACCAGCAUGGAAACAUGCCCUUGGCAGCCAGAAGCUGGCUGACUGCAAGGUCAGC [Design4],142
6,UGAUACCAGACUGAUACCAGCAAGUGAUGUUUGCUGAUCUAAAGCAGUCAAAGACUGCCUUGCCCUUGGCAGCAGUCUGGUAUCU [TheoBX 25 #SwitchBubble #StaticStem],81.7
7,ACAGUUGCUAGUGAUACCAGACUAGCACUACGUAAUAUGUCAAGUGAUGUUUGACAACUAGUCCCUUGGCAGCGCGAUACGACUG [#11 K4 Theophylline B Same State],289
8,UGUUGAGUGAUGUUCGAUGUAGUUCAUUCAGAGGAUAUAGGGUGGGCUAGAAGGCUGAAAAGUGCUUCGAGUGAUGUUCGAAGAU [Exclusion FMN A GF 7],77.7
9,CCAACAACGAGUGAUGUUCGUUGAUCUGAAGGAGCGUCAAUAAUGACAGGUAGGUCGCAGAUAAUUGGAUAUAGGGCAAUAGCUC [Same State Arginine A GF13],116
10,AGGUUUUGAUUAGGAUAUGCACUGAGGAGGAGAAUAUAGUGAUGUUAUAUAAGAGGAAGGAGUAGAGUAGAAGGGAUUGAGGUUU [SSFMNB.R],164
11,CGCGCGCGCGCGCGCGCGCGCGCGAAUGAUACCAGUAUAUAAGAAUACCCUUGGCAGCAUAAGAAAGAUAUAGUGAUGUUGUAUA [SSTheophA.B],150
12,GCCGUACGCAUGGAUACCAGCAAUUAUGCUCGUGAUCUAGUGAUGUUAGUGGCGAAAGUUUGCCCUUGGCAGCCAUGCGUACGGC,172
13,AGCAUUUUCAGAAGGAGCGUGAAUUAUUCUUAAUUAUAUUAUACGAGUGAUGUUCGUGUUUCACAGGUAGGUCGCUGAUAUAGCA [JR_SSArginiB_Sub004],90.3
14,AAGUGAUGUUGUAGUGAUGUUGUGAUGUUGCAGGAUAUAUAGUGAUGUAGAAGGGUAUGUACAGUUUUUUUUUUUGAGUGUUGAU [sscsmullin],36
15,AGGGCUGAGAGCGAUACCAGCGGAUACUAUAUGGUCCAAUAGAGUGAUGUUUUAUAAAGCCGCCCUUGGCAGCGCAAUCUAUUAG [XTheo-B4],423
16,CCUUCUCUUGAUAGUGAUGUUGUCGAGGACAAGGAUAUCAUCUCAAUGAGAAGGUGUCCUUGAUAACAUGGAGGUCUGAAACAGA [Omei KL FMN A Exc C v10],394

# Same assay, conditions: Eterna round: R107; input ligand: none
row,Sequence,apparent KD of K4 kissing-loop reporter [nM]
1,UGUACCGAGUCAGGAUAUGGCGUCGAAAGACGAAAACCAGUGAUGUUGGAAAUCUGCGAAAGCAGUCCAGAAGGGACUUGGUACU [FmnBS 25 #SwitchBubble #StaticStem #DoubleMagnetSystem],266
2,GAUUGUGAUGGAAACAUCGCAAUCUCUGAAGGAGCGCGUGAAAACGCAGGUAGGUCGCAGGACGACUAUGACAGUGAUGUUGUCG [Ex Arginine A K4 3],190
3,GCAACUCUCAGUGAUGUUGAGUUAUCGGAAGGAGCGCGUGAAAACGCAGGUAGGUCGCCGAUACAAUGAGUUUCUCGUUGGUUGC [Arginine A K4 21],664
4,AGCGUCCCUACGGCCGCCACUGGGAGUGAUGUUCCCAGGUUAGGCCUGAGGAUACUAAGGAUCGCCAGGACCGGGUAGCGACCAU [Azaonbe],80.3
5,UAGUCGCUAGUUAGCGACAACGGGUCAGAUACCAGACUAGCGAUAGUCCCUUGGCAGCUGAAGUUCAGUGAUGUUGAACGGAUUA [Theo A SS t10],265
6,GCGUCAUCGAAAGGAUAUGGAGUAGUGAUGUUGAUCCAUAUGCUCACGCAUAGCCGAGAACAUCGACCAGAAGGUUCAAGAACUG [theeternabot_exclusion_KL_FMN_B_41],757
7,UGUACCGAGUCAGGAUAUGACGACUAGUCAAAGACUGGUCGAAAAUCCAGUGAUGUUGGAAAUAAAUCAGAAGGGACUUGGUACU [FmnBS 16 #SwitchBubble #StaticStem],272
8,CUCGUGGGUUUGAGAGGGCUUGUGGGAAGUGAGGAUAUUUAGGGAGAAAGAAGGCACUAUAGAAUAUAGUGAUGUUAUGUAAGGG [SSFMNA.O],492
9,AGAGGAAAUAGAAGGAGCGGCGCCAGUGAUGUUGGAUGCCGCGGGUGAAUCAGGUCAUAGUGCCAGGUAGGUCGCUAUUUCAGCG [Larebeve],141
10,AUUAAUUUCAGAGGAUAUCGUAUUUAUAUUUUAUCUUUCCAUAUUUGCAGUGAUGUUGCAUUAAUUCGAGAAGGCUGAUUUAUAA [JR_ExcFMNB_Sub008],61.5
11,AGAGAUAUAUGAGGAUAUGAGUUAGUUAAUGAGUGAGUUUUAGUGUUGUUUGGUUAGUGAUGUUAUUUAGAAGGCGUGAGUGAUG [ttytmullin],74.9
12,GCAGGACGAGGAGGAGGAUGAAUUACUGAAGGAGCGCAUAUGGUUGCAGGUAGGUCGCGGUAAACAAGUAUAGUGAUGUUAUAUC [SSArgA.P],552
13,GUAGACAGGCUGCGAACCUAGUCUACAGACUAGGAUAUCAGGAAACUGAGAAGGAGUCUAGUUGCAGUGAUGUUGCAAGAAUAAU [KL-SSFMN-A25],94.6
14,CCAUCGCUAUUCGAUACCAGCUACUUAGUGAUGUUAAGUUUAAAUCCACUGUAGGUGGAAAGCCCUUGGCAGCGAAUAGUGAUGG [Theophylline B K4 24],306
15,GCGCGUCAUGUCGGCGGUGACUACGCCGAUACCAGCCGGGAAACCGGCCCUUGGCAGCGGCGCGCCGGAGUGAUGUUCCGACAGA [#2 Exclusion - Theophylline A Attempt #3 (HarryS)],190
16,CAUGGACUUCCAGUGUAUCCAUGACUGGAUACCAGUCAGGAAACUGACCCUUGGCAGCCAGAACUGGAAGUGAUGUUUCCAGUAA [Design8],244
17,AAAUUUUCGAGUGAUGUUCGAAUAAUUUCAGAGGAUAUGCUUAAAAGCAGAAGGCUGUAUUACUAUUUGUUAUUAAAUUUUAUAA [JR_ExcFMNA_Sub001],96.7
18,CUCACAGUGAUGUUGUGGGCCGAGAGUGAUACCAGCCGUAUUUGUGGCCCUUGGCAGCGCAAAAGCCGAGUGAUGUUCGAAUCGG [Same State Theophylline A GF 24],207
19,UGUAUAGUCAGAAGGAGCGUGAACGAUCGAGAAUCGAUCAGCCAGUGAUGUUGGCAGGAAUCACAGGUAGGUCGCUGACUGUACA [Arg B SS t3],258
20,GGUAGCAUGGCGGCCGCCACUUUGCACCUUUUCUUUUCUUUUGGUGCUUCACGAGUGAUGUUCGUAAGGACCGGGCCAUGCUACC,261
21,GCCGUAGAUGGAAGGAGCGUGUCCAAACCUCAUUCAUGUACACACGAGUGAUGUUCGUGUACACAGGUAGGUCGCCAUCUACGGC,374
